B1: GST-tagged human GABARAP (natural protein)
chain: MKFVYKEEHPFEKRRSEGEKIRKKYPDRVPVIVEKAPKARIGDLDKKKYLVPSDLTVGQFYFLIRKRIHLRAEDALFFFVNNVIPPTSATMGQLYQEHHEEDFFLYIAYSDESVYGL

For the test “GST-tagged human GABARAP”, the target named is B1. Kind of test: pull-down.
Test [1] deals with Recombinant WT XIAP protein (human, UniProt P98170 1-497). Kind of test: pull-down.
Sequence of Recombinant WT XIAP protein (P98170 whole entry): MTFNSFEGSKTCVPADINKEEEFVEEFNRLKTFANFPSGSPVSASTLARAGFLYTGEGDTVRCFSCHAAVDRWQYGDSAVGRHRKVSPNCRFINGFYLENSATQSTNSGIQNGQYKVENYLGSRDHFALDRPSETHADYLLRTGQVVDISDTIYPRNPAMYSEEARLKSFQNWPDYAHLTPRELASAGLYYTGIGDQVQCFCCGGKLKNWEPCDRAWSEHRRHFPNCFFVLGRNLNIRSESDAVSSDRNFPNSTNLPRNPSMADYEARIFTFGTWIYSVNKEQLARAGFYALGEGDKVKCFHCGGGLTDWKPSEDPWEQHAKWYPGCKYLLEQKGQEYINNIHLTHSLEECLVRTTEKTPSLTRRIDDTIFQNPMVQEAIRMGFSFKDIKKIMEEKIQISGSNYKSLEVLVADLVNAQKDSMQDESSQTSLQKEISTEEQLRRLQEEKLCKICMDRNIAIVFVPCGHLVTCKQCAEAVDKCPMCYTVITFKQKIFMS

Take EDEWVNVQY [GIM-containing peptide EDEWVNVQY]: the binding result with GST-tagged human GABARAP is given as “binds”.

As to B1, the binding result in test [1] was “binds”.
